# Results from PMC10397247.
# T1: 4H683-bA
# T1 chain: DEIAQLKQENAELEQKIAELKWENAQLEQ
# T2: 4H570-bH
# T2 chain: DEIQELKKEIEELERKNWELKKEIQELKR
# T3: 4H584-bH
# T3 chain: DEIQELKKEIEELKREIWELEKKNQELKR
# T4: 4H850-bH
# T4 chain: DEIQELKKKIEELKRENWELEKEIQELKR
# T5: 4H906-bH
# T5 chain: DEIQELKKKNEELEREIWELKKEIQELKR
# T6: 4H3817-bH
# T6 chain: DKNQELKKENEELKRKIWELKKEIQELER
# T7: 4H3638-bH
# T7 chain: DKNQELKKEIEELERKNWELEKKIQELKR
# T8: 4H3631-bH
# T8 chain: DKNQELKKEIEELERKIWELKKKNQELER
# T9: 4H3414-bH
# T9 chain: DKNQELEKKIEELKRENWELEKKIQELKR
# T10: 4H3974-bH
# T10 chain: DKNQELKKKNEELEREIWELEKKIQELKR
# T11: 4H619-bH
# T11 chain: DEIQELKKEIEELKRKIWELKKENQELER
# T12: 4H3606-bH
# T12 chain: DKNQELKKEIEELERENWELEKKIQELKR
# T13: 4H3782-bH
# T13 chain: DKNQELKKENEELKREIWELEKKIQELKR
# T14: 4H3843-bH
# T14 chain: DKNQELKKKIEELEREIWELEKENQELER
# T15: 4H568-bH
# T15 chain: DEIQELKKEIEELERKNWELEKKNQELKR
# T16: 4H72-bH
# T16 chain: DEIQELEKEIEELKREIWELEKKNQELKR
# T17: 4H607-bH
# T17 chain: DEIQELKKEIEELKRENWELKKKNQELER
# T18: 4H797-bH
# T18 chain: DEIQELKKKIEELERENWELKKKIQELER
# T19: 4H687-bH
# T19 chain: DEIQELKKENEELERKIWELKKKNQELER
# T20: 4H331-bH
# T20 chain: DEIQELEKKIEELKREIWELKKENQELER
# T21: 4H4001-bH
# T21 chain: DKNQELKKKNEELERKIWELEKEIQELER
# T22: 4H883-bH
# T22 chain: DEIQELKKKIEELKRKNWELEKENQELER
# T23: 4H370-bH
# T23 chain: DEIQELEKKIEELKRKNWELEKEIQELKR
# T24: 4H462-bH
# T24 chain: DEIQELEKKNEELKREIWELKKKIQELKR
# T25: 4H918-bH
# T25 chain: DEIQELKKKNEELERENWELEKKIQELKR
# T26: 4H3189-bH
# T26 chain: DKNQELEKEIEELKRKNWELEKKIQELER
# T27: 4H953-bH
# T27 chain: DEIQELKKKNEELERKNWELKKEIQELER
# T28: 4H717-bA
# T28 chain: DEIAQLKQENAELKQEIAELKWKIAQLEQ
# T29: 4H918-bA
# T29 chain: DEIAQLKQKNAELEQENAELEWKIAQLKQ
# T30: 4H454-bA
# T30 chain: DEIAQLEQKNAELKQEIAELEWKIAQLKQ
# T31: 4H953-bA
# T31 chain: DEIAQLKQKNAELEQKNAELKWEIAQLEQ
# T32: 4H3855-bA
# T32 chain: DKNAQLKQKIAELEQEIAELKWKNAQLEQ
# T33: 4H3782-bA
# T33 chain: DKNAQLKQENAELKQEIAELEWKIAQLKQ
# T34: 4H3354-bA
# T34 chain: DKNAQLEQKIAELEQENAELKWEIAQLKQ
# T35: 4H967-bA
# T35 chain: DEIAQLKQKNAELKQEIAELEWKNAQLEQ
# T36: 4H338-bA
# T36 chain: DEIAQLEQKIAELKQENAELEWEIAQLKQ
# T37: 4H797-bA
# T37 chain: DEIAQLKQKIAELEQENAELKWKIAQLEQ
# T38: 4H4001-bA
# T38 chain: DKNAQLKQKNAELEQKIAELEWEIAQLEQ
# T39: 4H754-bA
# T39 chain: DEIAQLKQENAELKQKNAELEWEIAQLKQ
# T40: 4H883-bA
# T40 chain: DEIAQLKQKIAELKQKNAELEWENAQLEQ
# T41: 4H607-bA
# T41 chain: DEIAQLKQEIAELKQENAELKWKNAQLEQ
# T42: 4H568-bA
# T42 chain: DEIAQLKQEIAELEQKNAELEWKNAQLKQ
# T43: P9A-bA
# T43 chain: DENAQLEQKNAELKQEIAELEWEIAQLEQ
# T44: 4H908-bA
# T44 chain: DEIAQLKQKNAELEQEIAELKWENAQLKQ
# T45: 4H687-bA
# T45 chain: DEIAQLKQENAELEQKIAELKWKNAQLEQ
# T46: 4H72-bA
# T46 chain: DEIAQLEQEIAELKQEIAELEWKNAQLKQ
# T47: 4H3427-bA
# T47 chain: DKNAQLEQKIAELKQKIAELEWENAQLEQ
# T48: 4H730-bH
# T48 chain: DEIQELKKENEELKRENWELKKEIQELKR
# T49: O5-bP
# T49 chain: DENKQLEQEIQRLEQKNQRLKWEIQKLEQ
# T50: O16-bN
# T50 chain: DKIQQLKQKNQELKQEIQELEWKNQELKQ
# T51: 4H3381-bH
# T51 chain: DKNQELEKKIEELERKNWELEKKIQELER
# T52: 4H56-bH
# T52 chain: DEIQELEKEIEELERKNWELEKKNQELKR
# T53: 4H949-bH
# T53 chain: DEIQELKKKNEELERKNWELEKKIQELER
# T54: 4H796-bH
# T54 chain: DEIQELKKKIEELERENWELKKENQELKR
# T55: 4H3364-bH
# T55 chain: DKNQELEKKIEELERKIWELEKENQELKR
# T56: 4H349-bH
# T56 chain: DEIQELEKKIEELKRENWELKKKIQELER
# T57: 4H932-bH
# T57 chain: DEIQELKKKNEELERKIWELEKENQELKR
# How the values were obtained:
# Assay in all cases: two-hybrid library CCNG1;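 note: natural log of median RNA to DNA barcode read ratio; higher means stronger binding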
# 4H683-bA = molecular target: T1, 4H683-bA
# 4H570-bH = molecular target: T2, 4H570-bH
# 4H584-bH = molecular target: T3, 4H584-bH
# 4H850-bH = molecular target: T4, 4H850-bH
# 4H906-bH = molecular target: T5, 4H906-bH
# 4H3817-bH = molecular target: T6, 4H3817-bH
# 4H3638-bH = molecular target: T7, 4H3638-bH
# 4H3631-bH = molecular target: T8, 4H3631-bH
# 4H3414-bH = molecular target: T9, 4H3414-bH
# 4H3974-bH = molecular target: T10, 4H3974-bH
# 4H619-bH = molecular target: T11, 4H619-bH
# 4H3606-bH = molecular target: T12, 4H3606-bH
# 4H3782-bH = molecular target: T13, 4H3782-bH
# 4H3843-bH = molecular target: T14, 4H3843-bH
# 4H568-bH = molecular target: T15, 4H568-bH
# 4H72-bH = molecular target: T16, 4H72-bH
# 4H607-bH = molecular target: T17, 4H607-bH
# 4H797-bH = molecular target: T18, 4H797-bH
# 4H687-bH = molecular target: T19, 4H687-bH
# 4H331-bH = molecular target: T20, 4H331-bH
# 4H4001-bH = molecular target: T21, 4H4001-bH
# 4H883-bH = molecular target: T22, 4H883-bH
# 4H370-bH = molecular target: T23, 4H370-bH
# 4H462-bH = molecular target: T24, 4H462-bH
# 4H918-bH = molecular target: T25, 4H918-bH
# 4H3189-bH = molecular target: T26, 4H3189-bH
# 4H953-bH = molecular target: T27, 4H953-bH
# 4H717-bA = molecular target: T28, 4H717-bA
# 4H918-bA = molecular target: T29, 4H918-bA
# 4H454-bA = molecular target: T30, 4H454-bA
# 4H953-bA = molecular target: T31, 4H953-bA
# 4H3855-bA = molecular target: T32, 4H3855-bA
# 4H3782-bA = molecular target: T33, 4H3782-bA
# 4H3354-bA = molecular target: T34, 4H3354-bA
# 4H967-bA = molecular target: T35, 4H967-bA
# 4H338-bA = molecular target: T36, 4H338-bA
# 4H797-bA = molecular target: T37, 4H797-bA
# 4H4001-bA = molecular target: T38, 4H4001-bA
# 4H754-bA = molecular target: T39, 4H754-bA
# 4H883-bA = molecular target: T40, 4H883-bA
# 4H607-bA = molecular target: T41, 4H607-bA
# 4H568-bA = molecular target: T42, 4H568-bA
# P9A-bA = molecular target: T43, P9A-bA
# 4H908-bA = molecular target: T44, 4H908-bA
# 4H687-bA = molecular target: T45, 4H687-bA
# 4H72-bA = molecular target: T46, 4H72-bA
# 4H3427-bA = molecular target: T47, 4H3427-bA
# 4H730-bH = molecular target: T48, 4H730-bH
# O5-bP = molecular target: T49, O5-bP
# O16-bN = molecular target: T50, O16-bN
# 4H3381-bH = molecular target: T51, 4H3381-bH
# 4H56-bH = molecular target: T52, 4H56-bH
# 4H949-bH = molecular target: T53, 4H949-bH
# 4H796-bH = molecular target: T54, 4H796-bH
# 4H3364-bH = molecular target: T55, 4H3364-bH
# 4H349-bH = molecular target: T56, 4H349-bH
# 4H932-bH = molecular target: T57, 4H932-bH
binder,measurement,setting,value
DKNQELEKKIEELKRENWELEKKIQELKR [4H3414-bH],interaction score,4H683-bA,0.0371
same,interaction score,4H570-bH,0.846
same,interaction score,4H584-bH,-0.695
same,interaction score,4H850-bH,0.00973
same,interaction score,4H906-bH,-0.25
same,interaction score,4H3817-bH,0.48
same,interaction score,4H3638-bH,-1.45
same,interaction score,4H3631-bH,0.689
same,interaction score,4H3414-bH,0.938
same,interaction score,4H3974-bH,0.33
same,interaction score,4H619-bH,0.721
DKNQELEKEIEELKRKNWELEKKIQELER [4H3189-bH],interaction score,4H3606-bH,-0.801
same,interaction score,4H3782-bH,-0.496
same,interaction score,4H3843-bH,-0.157
same,interaction score,4H568-bH,-0.408
same,interaction score,4H72-bH,-0.107
same,interaction score,4H607-bH,-2.19
same,interaction score,4H797-bH,-0.148
same,interaction score,4H687-bH,-0.776
same,interaction score,4H331-bH,-0.227
same,interaction score,4H4001-bH,-0.0803
same,interaction score,4H883-bH,-0.365
same,interaction score,4H370-bH,-0.165
same,interaction score,4H462-bH,-0.167
same,interaction score,4H918-bH,-0.173
same,interaction score,4H3189-bH,0.907
same,interaction score,4H953-bH,0.375
DKNAQLEQKIAELEQENAELKWEIAQLKQ [4H3354-bA],interaction score,4H717-bA,-0.712
same,interaction score,4H918-bA,-0.0912
same,interaction score,4H454-bA,-1.24
same,interaction score,4H953-bA,-0.675
same,interaction score,4H3855-bA,-0.492
same,interaction score,4H3782-bA,-0.851
same,interaction score,4H3354-bA,1.66
same,interaction score,4H967-bA,-0.407
same,interaction score,4H338-bA,0.149
same,interaction score,4H797-bA,-1.14
same,interaction score,4H4001-bA,-0.362
same,interaction score,4H754-bA,-0.511
same,interaction score,4H883-bA,-0.0506
same,interaction score,4H607-bA,-0.0475
same,interaction score,4H568-bA,-1.07
same,interaction score,P9A-bA,-1.59
same,interaction score,4H908-bA,-1.17
same,interaction score,4H687-bA,0.42
same,interaction score,4H72-bA,-0.822
same,interaction score,4H3427-bA,-0.0236
DKNQELEKKIEELERKIWELEKENQELKR [4H3364-bH],interaction score,4H730-bH,-0.811
same,interaction score,O5-bP,0.546
same,interaction score,O16-bN,0.622
same,interaction score,4H3381-bH,0.55
same,interaction score,4H56-bH,-0.464
same,interaction score,4H949-bH,0.153
same,interaction score,4H796-bH,-0.523
same,interaction score,4H3364-bH,1.55
same,interaction score,4H349-bH,-0.118
same,interaction score,4H932-bH,-0.252
DKNQELKKEIEELERKIWELKKKNQELER [4H3631-bH],interaction score,4H570-bH,-1.5
same,interaction score,4H584-bH,-0.0526
same,interaction score,4H850-bH,-1.94
same,interaction score,4H906-bH,-1.74
same,interaction score,4H3817-bH,0.637
same,interaction score,4H3638-bH,0.578
same,interaction score,4H3631-bH,1.13
same,interaction score,4H953-bH,0.206
same,interaction score,4H3974-bH,0.292
same,interaction score,4H619-bH,0.647
